Experimental data taken from article PMC6044717 (ACS Omega, 2018).

Assays:
Solubility in water = type: physicochemical; settings: physiological pH and temperature
[1] = target: fluorescein isothiocyanate (FITC)-conjugated GRGDSP peptide; assay: fluorescence polarisation
[2] = target: Human recombinant integrin α5β1 (human) (UniProt P08648); assay: fluorescence polarisation

Molecule	solubility in water (Solubility in water)	Kd [1] [µM]	IC50 [2] [µM]	Ki [2] [µM]
O=C(N[C@@H](Cc1ccccc1)C(=O)O)OCC1c2ccccc2-c2ccccc21 [Fmoc-F]	not readily soluble			
Human recombinant integrin α5β1 (from UniProt P08648 42-1049; P05556 21-728) (complex)		0.207		
arginine–glycine–aspartic acid tripeptide (RGD)			26.8	10.8
depsipeptide R-Glc-D (arginine–glycolic acid–aspartic acid)			1120	454
